Results as given in US20140087995A1 (published 2014).
Numbered stars: 1 amine (or outer) side, 2 acyl side, 3 side chain; on linkers, the order of the positions; unused ones are H or OH. Bridge positions count the residues as written; N and C are the ends. Side chains are listed from the residue outwards. Ends that are not written are not given here. * marks the point of attachment. C20 diacid = O=C(O)CCCCCCCCCCCCCCCCCCC(=O)*; γGlu = O=C(O)[C@H](CCC(=O)[*:2])N[*:1]

T1: human calcitonin receptor (human, UniProt P30988 25-474)
T1 construct: whole, on cells; Membranes prepared from a stably transfected BHK cell line (Assay VII); also called hCTR; hCT
T1 sequence (looked up): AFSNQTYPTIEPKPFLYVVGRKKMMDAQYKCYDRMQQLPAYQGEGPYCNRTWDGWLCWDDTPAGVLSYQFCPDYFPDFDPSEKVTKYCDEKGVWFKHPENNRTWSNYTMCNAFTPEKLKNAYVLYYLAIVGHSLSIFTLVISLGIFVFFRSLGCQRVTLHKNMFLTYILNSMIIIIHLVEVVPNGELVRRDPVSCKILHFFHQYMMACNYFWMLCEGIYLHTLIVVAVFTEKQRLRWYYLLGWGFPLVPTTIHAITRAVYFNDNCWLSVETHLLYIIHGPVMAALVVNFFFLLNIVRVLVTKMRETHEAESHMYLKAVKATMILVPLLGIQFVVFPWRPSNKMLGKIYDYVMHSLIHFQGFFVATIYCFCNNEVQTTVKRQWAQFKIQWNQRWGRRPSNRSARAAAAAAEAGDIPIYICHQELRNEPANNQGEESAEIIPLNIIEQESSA

T2: rat calcitonin receptor (rat, UniProt P32214 25-516)
T2 construct: whole, on cells; Membranes prepared from transiently transfected BHK tk'ts 13 cells (Assay VIII); also called rCTR; rCT
T2 sequence (looked up): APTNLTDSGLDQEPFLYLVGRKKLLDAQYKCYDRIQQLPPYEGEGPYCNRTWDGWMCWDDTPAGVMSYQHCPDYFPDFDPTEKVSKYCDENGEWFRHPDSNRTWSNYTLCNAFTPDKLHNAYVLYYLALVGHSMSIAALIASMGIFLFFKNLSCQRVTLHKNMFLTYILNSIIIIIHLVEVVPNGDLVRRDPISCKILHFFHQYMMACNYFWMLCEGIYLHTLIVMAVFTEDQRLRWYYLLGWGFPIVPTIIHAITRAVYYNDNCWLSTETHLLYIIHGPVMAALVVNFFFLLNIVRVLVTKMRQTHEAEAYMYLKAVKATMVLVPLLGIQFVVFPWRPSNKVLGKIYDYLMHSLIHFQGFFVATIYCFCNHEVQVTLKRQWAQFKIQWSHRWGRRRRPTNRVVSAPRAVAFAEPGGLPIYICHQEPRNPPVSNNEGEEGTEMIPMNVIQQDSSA

T3: rat amylin receptor (rat calcitonin receptor + rat RAMP 3) (rat, UniProt P32214 25-516; Q9JJ73 23-147)
T3 construct: whole, on cells; Membranes prepared from transiently transfected BHK tk'ts 13 cells (Assay VI); also called rAmylin-R; rAmylin
T3 sequence (looked up) 1: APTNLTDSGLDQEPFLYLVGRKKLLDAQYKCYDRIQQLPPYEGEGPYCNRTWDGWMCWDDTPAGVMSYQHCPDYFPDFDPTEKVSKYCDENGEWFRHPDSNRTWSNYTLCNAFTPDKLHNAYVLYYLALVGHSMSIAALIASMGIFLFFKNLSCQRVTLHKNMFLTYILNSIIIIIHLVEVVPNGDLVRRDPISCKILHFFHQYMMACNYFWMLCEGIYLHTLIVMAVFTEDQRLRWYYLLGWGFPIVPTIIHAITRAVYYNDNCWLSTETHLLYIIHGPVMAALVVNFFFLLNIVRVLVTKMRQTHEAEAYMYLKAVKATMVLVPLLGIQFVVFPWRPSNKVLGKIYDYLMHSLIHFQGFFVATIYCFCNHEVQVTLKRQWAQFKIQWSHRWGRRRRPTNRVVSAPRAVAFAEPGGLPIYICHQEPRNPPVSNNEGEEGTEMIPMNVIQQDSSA
T3 sequence (looked up) 2: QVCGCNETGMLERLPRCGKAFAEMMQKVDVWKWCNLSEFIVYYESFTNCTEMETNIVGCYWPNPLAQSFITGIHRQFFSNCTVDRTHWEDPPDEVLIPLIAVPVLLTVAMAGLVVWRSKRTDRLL


Experiments:
[1] = biological target: T1, human calcitonin receptor; assay: ratio of binding IC50s: human calcitonin receptor / human amylin receptor (reference)
Outline: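 Competition binding by SPA uses membrane preparations (35 ng/μL final) in pH 7.4 Hepes buffer with 1 mM CaCl2 and 5 mM MgCl₂. Incubation lasts 120 min at 25° C, and IC₅₀ comes from one-site fitting.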

rat calcitonin receptor [2] = biological target: T2, rat calcitonin receptor; assay: SPA competition vs 125I-calcitonin, membranes of BHK cells with rat calcitonin receptor (Assay VIII)
rat calcitonin receptor [3] = biological target: T2, rat calcitonin receptor; assay: ratio of binding IC50s: rat calcitonin receptor / rat amylin receptor (reference)
[4] = biological target: T3, rat amylin receptor (rat calcitonin …); assay: SPA competition vs 125I-rat amylin, membranes of BHK cells with rat calcitonin receptor + rat RAMP3 (Assay VI)

| Binder | Ratio hCT/hAmylin binding [1] | IC50 (rat calcitonin receptor [2]) | Ratio rCT/rAmylin binding (rat calcitonin receptor [3]) | IC50 [4] |
| --- | --- | --- | --- | --- |
| K([γGlu-γGlu-C20 diacid])CNTATCATQRLANFLRHSSPNFGAIPSSTNVGHNTY-NH2 (disulfide 2-7; N-terminus assumed; SMILES CC[C@H](C)[C@H](NC(=O)[C@H](C)NC(=O)CNC(=O)[C@H](Cc1ccccc1)NC(=O)[C@H](CC(N)=O)NC(=O)[C@@H]1CCCN1C(=O)[C@H](CO)NC(=O)[C@H](CO)NC(=O)[C@H](Cc1c[nH]cn1)NC(=O)[C@H](CCCNC(=N)N)NC(=O)[C@H](CC(C)C)NC(=O)[C@H](Cc1ccccc1)NC(=O)[C@H](CC(N)=O)NC(=O)[C@H](C)NC(=O)[C@H](CC(C)C)NC(=O)[C@H](CCCNC(=N)N)NC(=O)[C@H](CCC(N)=O)NC(=O)[C@@H](NC(=O)[C@H](C)NC(=O)[C@@H]1CSSC[C@H](NC(=O)[C@@H](N)CCCCNC(=O)CC[C@H](NC(=O)CC[C@H](NC(=O)CCCCCCCCCCCCCCCCCCC(=O)O)C(=O)O)C(=O)O)C(=O)N[C@@H](CC(N)=O)C(=O)N[C@@H]([C@@H](C)O)C(=O)N[C@@H](C)C(=O)N[C@@H]([C@@H](C)O)C(=O)N1)[C@@H](C)O)C(=O)N1CCC[C@H]1C(=O)N[C@@H](CO)C(=O)N[C@@H](CO)C(=O)N[C@H](C(=O)N[C@@H](CC(N)=O)C(=O)N[C@H](C(=O)NCC(=O)N[C@@H](Cc1c[nH]cn1)C(=O)N[C@@H](CC(N)=O)C(=O)N[C@H](C(=O)N[C@@H](Cc1ccc(O)cc1)C(N)=O)[C@@H](C)O)C(C)C)[C@@H](C)O, Analogue of human amylin; also called compound 86) | 159 | 352 nM | 126 | 2.8 nM |
| K([γGlu-γGlu-C20 diacid])CNTATCATQRLAEFLRHSSPNFGAIPSSTNVGRNTY-NH2 (disulfide 2-7; N-terminus assumed; SMILES CC[C@H](C)[C@H](NC(=O)[C@H](C)NC(=O)CNC(=O)[C@H](Cc1ccccc1)NC(=O)[C@H](CC(N)=O)NC(=O)[C@@H]1CCCN1C(=O)[C@H](CO)NC(=O)[C@H](CO)NC(=O)[C@H](Cc1c[nH]cn1)NC(=O)[C@H](CCCNC(=N)N)NC(=O)[C@H](CC(C)C)NC(=O)[C@H](Cc1ccccc1)NC(=O)[C@H](CCC(=O)O)NC(=O)[C@H](C)NC(=O)[C@H](CC(C)C)NC(=O)[C@H](CCCNC(=N)N)NC(=O)[C@H](CCC(N)=O)NC(=O)[C@@H](NC(=O)[C@H](C)NC(=O)[C@@H]1CSSC[C@H](NC(=O)[C@@H](N)CCCCNC(=O)CC[C@H](NC(=O)CC[C@H](NC(=O)CCCCCCCCCCCCCCCCCCC(=O)O)C(=O)O)C(=O)O)C(=O)N[C@@H](CC(N)=O)C(=O)N[C@@H]([C@@H](C)O)C(=O)N[C@@H](C)C(=O)N[C@@H]([C@@H](C)O)C(=O)N1)[C@@H](C)O)C(=O)N1CCC[C@H]1C(=O)N[C@@H](CO)C(=O)N[C@@H](CO)C(=O)N[C@H](C(=O)N[C@@H](CC(N)=O)C(=O)N[C@H](C(=O)NCC(=O)N[C@@H](CCCNC(=N)N)C(=O)N[C@@H](CC(N)=O)C(=O)N[C@H](C(=O)N[C@@H](Cc1ccc(O)cc1)C(N)=O)[C@@H](C)O)C(C)C)[C@@H](C)O, Analogue of human amylin; also called compound 88) | 46.5 | 196 nM | 84.9 | 2.31 nM |
| K([γGlu-γGlu-C20 diacid])CNTATCATQRLAEFLRHSSPNFGAIPSSTNVGHNTY-NH2 (disulfide 2-7; N-terminus assumed; SMILES CC[C@H](C)[C@H](NC(=O)[C@H](C)NC(=O)CNC(=O)[C@H](Cc1ccccc1)NC(=O)[C@H](CC(N)=O)NC(=O)[C@@H]1CCCN1C(=O)[C@H](CO)NC(=O)[C@H](CO)NC(=O)[C@H](Cc1c[nH]cn1)NC(=O)[C@H](CCCNC(=N)N)NC(=O)[C@H](CC(C)C)NC(=O)[C@H](Cc1ccccc1)NC(=O)[C@H](CCC(=O)O)NC(=O)[C@H](C)NC(=O)[C@H](CC(C)C)NC(=O)[C@H](CCCNC(=N)N)NC(=O)[C@H](CCC(N)=O)NC(=O)[C@@H](NC(=O)[C@H](C)NC(=O)[C@@H]1CSSC[C@H](NC(=O)[C@@H](N)CCCCNC(=O)CC[C@H](NC(=O)CC[C@H](NC(=O)CCCCCCCCCCCCCCCCCCC(=O)O)C(=O)O)C(=O)O)C(=O)N[C@@H](CC(N)=O)C(=O)N[C@@H]([C@@H](C)O)C(=O)N[C@@H](C)C(=O)N[C@@H]([C@@H](C)O)C(=O)N1)[C@@H](C)O)C(=O)N1CCC[C@H]1C(=O)N[C@@H](CO)C(=O)N[C@@H](CO)C(=O)N[C@H](C(=O)N[C@@H](CC(N)=O)C(=O)N[C@H](C(=O)NCC(=O)N[C@@H](Cc1c[nH]cn1)C(=O)N[C@@H](CC(N)=O)C(=O)N[C@H](C(=O)N[C@@H](Cc1ccc(O)cc1)C(N)=O)[C@@H](C)O)C(C)C)[C@@H](C)O, Analogue of human amylin; also called compound 87) | 35.6 | 94.5 nM | 45.6 | 2.07 nM |

Further binders by falling IC50 (rat calcitonin receptor [2]), results first:

| Ratio hCT/hAmylin binding [1] | IC50 (rat calcitonin receptor [2]) | Ratio rCT/rAmylin binding (rat calcitonin receptor [3]) | IC50 [4] | Binder |
| --- | --- | --- | --- | --- |
| 28 | 115 nM | 48.8 | 2.37 nM | K([γGlu-γGlu-C20 diacid])CNTATCATQRLAEFLRHSSPNFGAIPSSTNVGSRTY-NH2 (disulfide 2-7; N-terminus assumed; SMILES CC[C@H](C)[C@H](NC(=O)[C@H](C)NC(=O)CNC(=O)[C@H](Cc1ccccc1)NC(=O)[C@H](CC(N)=O)NC(=O)[C@@H]1CCCN1C(=O)[C@H](CO)NC(=O)[C@H](CO)NC(=O)[C@H](Cc1c[nH]cn1)NC(=O)[C@H](CCCNC(=N)N)NC(=O)[C@H](CC(C)C)NC(=O)[C@H](Cc1ccccc1)NC(=O)[C@H](CCC(=O)O)NC(=O)[C@H](C)NC(=O)[C@H](CC(C)C)NC(=O)[C@H](CCCNC(=N)N)NC(=O)[C@H](CCC(N)=O)NC(=O)[C@@H](NC(=O)[C@H](C)NC(=O)[C@@H]1CSSC[C@H](NC(=O)[C@@H](N)CCCCNC(=O)CC[C@H](NC(=O)CC[C@H](NC(=O)CCCCCCCCCCCCCCCCCCC(=O)O)C(=O)O)C(=O)O)C(=O)N[C@@H](CC(N)=O)C(=O)N[C@@H]([C@@H](C)O)C(=O)N[C@@H](C)C(=O)N[C@@H]([C@@H](C)O)C(=O)N1)[C@@H](C)O)C(=O)N1CCC[C@H]1C(=O)N[C@@H](CO)C(=O)N[C@@H](CO)C(=O)N[C@H](C(=O)N[C@@H](CC(N)=O)C(=O)N[C@H](C(=O)NCC(=O)N[C@@H](CO)C(=O)N[C@@H](CCCNC(=N)N)C(=O)N[C@H](C(=O)N[C@@H](Cc1ccc(O)cc1)C(N)=O)[C@@H](C)O)C(C)C)[C@@H](C)O, Analogue of human amylin; also called compound 89) |
| 51.6 | 14.7 nM | 85.4 | 0.172 nM | K([γGlu-C20 diacid])CNTATCATQRLAHFLRHSSPNFGAIPSSTNVGPNTY-NH2 (disulfide 2-7; N-terminus assumed; SMILES CC[C@H](C)[C@H](NC(=O)[C@H](C)NC(=O)CNC(=O)[C@H](Cc1ccccc1)NC(=O)[C@H](CC(N)=O)NC(=O)[C@@H]1CCCN1C(=O)[C@H](CO)NC(=O)[C@H](CO)NC(=O)[C@H](Cc1c[nH]cn1)NC(=O)[C@H](CCCNC(=N)N)NC(=O)[C@H](CC(C)C)NC(=O)[C@H](Cc1ccccc1)NC(=O)[C@H](Cc1c[nH]cn1)NC(=O)[C@H](C)NC(=O)[C@H](CC(C)C)NC(=O)[C@H](CCCNC(=N)N)NC(=O)[C@H](CCC(N)=O)NC(=O)[C@@H](NC(=O)[C@H](C)NC(=O)[C@@H]1CSSC[C@H](NC(=O)[C@@H](N)CCCCNC(=O)CC[C@H](NC(=O)CCCCCCCCCCCCCCCCCCC(=O)O)C(=O)O)C(=O)N[C@@H](CC(N)=O)C(=O)N[C@@H]([C@@H](C)O)C(=O)N[C@@H](C)C(=O)N[C@@H]([C@@H](C)O)C(=O)N1)[C@@H](C)O)C(=O)N1CCC[C@H]1C(=O)N[C@@H](CO)C(=O)N[C@@H](CO)C(=O)N[C@H](C(=O)N[C@@H](CC(N)=O)C(=O)N[C@H](C(=O)NCC(=O)N1CCC[C@H]1C(=O)N[C@@H](CC(N)=O)C(=O)N[C@H](C(=O)N[C@@H](Cc1ccc(O)cc1)C(N)=O)[C@@H](C)O)C(C)C)[C@@H](C)O, Analogue of human amylin; also called compound 67) |
